Experiments:
[1] = tested on: mouse primary spiral ganglion neurons; test: Reversal of FAM19A5-induced inhibition of neurite outgrowth; format: cell-based; conditions: 10 μM FAM19A5 protein co-treated with 100 nM antibody, 3 DIV
Procedure: Sprial ganglion neuron were cultured in culture media consisting of high-glucose (4.5 mg/mL) DMEM, 0.1 mg/ml penicillin, 0.1 mg/mL streptomycin, N2 supplement, and 10 µg/mL insulin and was designated here as “5K” because in this media, [K+]=5.4 mM. A depolarizing media, designated as “30K,” in which Na was replaced with equimolar K to raise [K] to 30 mM while maintaining osmolarity was also used.
Dissociated spiral ganglion cell cultures were prepared from postnatal day 4-5 (P4-5) cochleae and maintained using a procedure modified from the methods described by Bok et al., J Neurosci 23 (3): 777-87 (2003), which is incorporated herein by reference in its entirety. […]
Neurite outgrowth was quantified by measuring the total length of neurites per neuron. Neurons were stained with NF200 at either 2 or 3 DIV, and neurite lengths were measured using the Fiji (Image J). Individual neurons were manually selected, and neurite lengths were determined using the Simple Neurite Tracer plugin.
Briefly, mouse primary spiral ganglion neurons (cultured and processed as described in Example 11) were treated with a FAM19A5 protein (10 μM) alone or in combination with an anti-FAM19A5 antibody (1-30) (100 nM) at 0 DIV (day in vitro). […] Then, at 3 DIV, the neurons were stained for neurofilament protein (NF200) expression and the average neurite length quantified.

[2] = target: human FAM19A5 (Homo sapiens, UniProt Q7Z5A7); test: HDX-MS epitope mapping; format: binding; conditions: HDX-MS deuterium uptake heat map; residues of SEQ ID NO: 304
Procedure: Hydrogen/deuterium exchange mass spectrometry (HDX-MS) was utilized as described below to probe the binding epitope of human FAM19A5 for the clone 2-13 anti-FAM19A5 antibody.
Prior to epitope mapping experiments, non-deuteriated experiments were carried out to generate a list of common peptides for FAM19A5 protein. Off-line and on-line pepsin digestion were used to digest the FAM19A5 protein. Houde, D., et al., Methods Mol Biol 988:269-89 (2013). With on-line digestion, pepsin immobilized column was used (~20° C.) and the efficiency of the reaction was regulated by adjusting the flow rate. With the off-line method, FAM19A5 protein was digested manually with pepsin at 4° C. for 5 minutes, and then, the mixture was loaded to liquid chromatography column for analysis. To identify the condition for maximal protein coverage, one or more of the following parameters were adjusted: potassium phosphate, sodium phosphate, quench holding time, reducing reagent (TCEP), urea concentration, and pepsin concentration. The Waters PLGS software was used to analyze the raw mass spectrometry (MS) data generated to determine whether maximal protein coverage was obtained. To confirm the reproducibility of the experiments, each of the experimental conditions were repeated at least twice, and peptides that were generated were confirmed. […]

Chain of human FAM19A5 (Q7Z5A7 26-125 isoform Q7Z5A7-2 limits assumed): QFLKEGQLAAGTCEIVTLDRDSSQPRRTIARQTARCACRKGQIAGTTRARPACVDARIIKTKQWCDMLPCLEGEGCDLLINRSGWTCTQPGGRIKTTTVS

Molecule	neurite growth in FAM19A5-treated neurons [1]	amino acid residues identified as important binding residues [2]
1-30: anti-FAM19A5 antibody, de-immunized variant of 3-2; VH SEQ ID NO: 235, VL SEQ ID NO: 240 (antibody, V domains shown, Low-PI VH, 1-30 VH, 1-17 VH, 1-32 VH, 4-11 VH, 6-10 VH; 1-30 VL) VH: AVTLDESGGGLQTPGGALRLSCKASGFDFESFNMFWVRQAPGKGLEYVSQISSSEEDENYAPAVKGRATISRDNGQSTLYLQMNSLRAEDTGTYYCAKSSYDCPYGHCSSGVDSAGEIDAWGHGTEVIVSS VL: ALTQPSSVSANPGETVKITCSGGGSEEEQYYYGWYQQKPGSAPVTLIYQDEERPSDIPSRFSGSTSGSTATLTITGVQAGDEADYYCGSWDSEDEDHFGAGTTLTVL	less reduction in neurite growth and comparable to the neurons from the control group	–
2-13: anti-FAM19A5 antibody; VH SEQ ID NO: 35, VL SEQ ID NO: 39 (antibody, V domains shown, 2-13 VH; 2-13 VL) VH: AVTLDESGGGLQTPGGALSLVCKASGFTFSSHGMFWVRQTPGKGLEYVAEITNDGSGTNYGSAVKGRATISRDNGQSTVRLQLNNLRAEDTGTYFCARSTYECPGGFSCWGDTGQIDAWGHGTEVIVSS VL: ALTQPSSVSANPGETVKITCSGGSYSYGWFQQKSPGSALVTVIYWDDERPSDIPSRFSGALSGSTNTLTITGVQADDEAVYFCGTEDISGTAGVFGAGTTLTVL	–	38-50 ([…]; i.e., SEQ ID NO: 199) and 51-64 ([…]; i.e., SEQ ID NO: 200)

From US20260265360A1, “USE OF ANTI-FAM19A5 ANTAGONISTS FOR TREATING HEARING DISORDERS” (NEURACLE SCIENCE CO., LTD., priority 2023, published 2026)
